From US20150132307A1
Where a chain is given by its changes, count along the chain named.

B1: Humanized <TWEAK> 305- antibody 27 (antibody, V domains shown)
VH: QVQLVQSGAEVKKPGSSVKVSCKASGFDFSTYYMSWVRQAPGQGLEWMGTVYVRQGTTYYASWLNGRVTITADESTSTAYMELSSLRSEDTAVYYCARGGYNYDDAFVIWGQGTLVTVSS
VL: DIQMTQSPSSVSASVGDRVTITCQASQNIYSNLAWYQQKPGKAPKLLIYTASYLASGVPSRFSGSGSGTDYTLTISSLQPEDFATYYCQTAYYNSRPDTVAFGGGTKVEIK
B2: Humanized <TWEAK> 305- antibody 32 (antibody, V domains shown)
VH: EVQLLESGGGLVQPGGSLRLSCAASGFDFSTYYMSWVRQAPGKGLEWVSTVYVRQGTTYYASWLNGRFTISRDNSKNTLDLQMNSLRAEDTAVYYCAKGGYNYDDAFVIWGQGTLVTVSS
VL: B1 VL with S10T, V11L, D70E, Y71F, E81D
B3: Humanized <TWEAK> 305- antibody 29 (antibody, V domains shown)
VH: B2 VH
VL: B1 VL
B4: Humanized <TWEAK> 305- antibody 31 (antibody, V domains shown)
VH: B2 VH with R19T, D80Y
VL: B1 VL with D1A, Q3R, V11F, V15T, S77C, P80S
B5: Humanized <TWEAK> 305- antibody 28 (antibody, V domains shown)
VH: B2 VH with R19T, D80Y
VL: B1 VL
B6: Humanized <TWEAK> 305- antibody 33 (antibody, V domains shown)
VH: B1 VH
VL: B1 VL with D1A, Q3R, V11F, V15T, S77C, P80S
B7: Humanized <TWEAK> 305- antibody 34 (antibody, V domains shown)
VH: B2 VH with D80Y
VL: B1 VL with D1A, Q3R, V11F, V15T, S77C, P80S
B8: Humanized <TWEAK> 305- antibody 30 (antibody, V domains shown)
VH: B2 VH with D80Y, R87T
VL: B1 VL with Y71F
B9: <TWEAK> 305chi (antibody, human IgG1, kappa, V domains shown)
VH: QEQLVESGGGLVQPGGSLTLSCKASGFDFSTYYMSWVRQAPGKGLEWIGTVYVRQGTTYYASWLNGRFTISSDNAQNTVDLKMNSLTAADTATYFCAKGGYNYDDAFVIWGPGTLVTVSF
VL: AIEMTQTPFSVSAAVGGTVTINCQASQNIYSNLAWYQQKPGQPPKLLMYTASYLASGVPSRFKGSGSRTEYTLTISGVQCADAATYYCQTAYYNSRPDTVAFGGGTEVVVKR

Target: Biotinylated murine soluble TWEAK (amino acids 81-225 of SEQ ID NO: 69) (murine) (UniProt O54907)
Assay: SPR (Biacore), biotinylated soluble TWEAK on streptavidin chip, 25 C

Biacore t/2 diss. [min] 25° C. murine [min] | Binder
19 | B1
17 | B2
22 | B3
19 | B4
19 | B5
19 | B6
22 | B7
17 | B8

Target: Biotinylated murine soluble TWEAK (amino acids 81-225 of SEQ ID NO: 69) (murine) (UniProt O54907)
Assay: SPR (Biacore), biotinylated soluble TWEAK on streptavidin chip, 37 C

Biacore t/2 diss. [min] 37° C. murine [min] | Binder
19 | B1
20 | B2
21 | B3
19 | B4
17 | B5
15 | B6
20 | B7
15 | B8

Target: Biotinylated murine soluble TWEAK (amino acids 81-225 of SEQ ID NO: 69) (murine) (UniProt O54907)
Assay: SPR (Biacore), further experiment, biotinylated soluble TWEAK on streptavidin chip, 25 C

t/2 diss [min] 25° C. [min] | Binder
41 | B9

Target: Biotinylated murine soluble TWEAK (amino acids 81-225 of SEQ ID NO: 69) (murine) (UniProt O54907)
Assay: SPR (Biacore 2000), biotinylated soluble TWEAK on streptavidin chip, antibody 100 nM as analyte, 25 C

t/2 diss [min] 25° C. [min] | Binder
39 | B9
